Data as given in paper PMC6755812.

Assays:
Cys32 = Cys32 (UniProt position 33, FWAEWCGPCKM); settings: reduced (dithiol) form implied; not stated explicitly; cited from earlier work
[1] = target: bovine pancreas insulin (bovine)
[2] = target: Escherichia coli peptide methionine sulfoxide reductase A (E. coli) (UniProt P0A744)
[3] = target: Escherichia coli thioredoxin reductase (E. coli) (UniProt P0A9P4)
Chain of Escherichia coli thioredoxin reductase (E. coli) (P0A9P4 2-321): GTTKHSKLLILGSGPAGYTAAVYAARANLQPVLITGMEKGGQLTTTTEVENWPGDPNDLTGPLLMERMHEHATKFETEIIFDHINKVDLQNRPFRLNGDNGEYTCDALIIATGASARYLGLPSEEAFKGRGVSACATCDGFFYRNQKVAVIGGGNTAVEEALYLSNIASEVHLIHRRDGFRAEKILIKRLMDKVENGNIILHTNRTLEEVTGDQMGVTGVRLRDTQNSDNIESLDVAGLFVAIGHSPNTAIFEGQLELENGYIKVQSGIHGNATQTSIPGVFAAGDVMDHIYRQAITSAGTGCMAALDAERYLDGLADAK

Chain of Escherichia coli thioredoxin (P0AA25 2-109): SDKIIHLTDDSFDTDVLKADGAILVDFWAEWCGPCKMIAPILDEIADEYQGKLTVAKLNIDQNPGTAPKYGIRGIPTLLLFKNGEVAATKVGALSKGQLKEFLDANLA
Chain of Escherichia coli peptide methionine sulfoxide reductase A (E. coli) (P0A744 2-212): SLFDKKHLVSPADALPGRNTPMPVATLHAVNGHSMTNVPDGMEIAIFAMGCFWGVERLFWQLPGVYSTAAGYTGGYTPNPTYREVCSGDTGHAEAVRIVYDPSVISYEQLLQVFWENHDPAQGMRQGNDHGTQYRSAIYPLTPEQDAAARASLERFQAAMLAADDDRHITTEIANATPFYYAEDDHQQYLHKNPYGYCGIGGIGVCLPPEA

| Specific insulin reductase activity (0.13 mM insulin, 1 mM DTT, 0.5-2.0 μM Trx, onset of aggregation at OD650, pH 7.0, 25 °C) [1] [min^−1 μM^−1] | k1: rate constant of Trx–MsrA mixed disulfide formation (stopped-flow fluorescence, 1 μM oxidized MsrA, 5-100 μM reduced Trx, pH 7.0, 25 °C) [2] [M^−1 s^−1] | k2: rate constant of mixed disulfide dissociation to reduced MsrA and oxidized Trx (stopped-flow fluorescence, pH 7.0, 25 °C) [2] [s^−1] | Catalytic activity of S-MetO reduction by NADPH (Vi/[Trx]) in the reconstituted NADPH/TrxR/Trx/MsrA chain (4.5 μM TrxR, 4.5 μM MsrA, 0.1-1.0 μM Trx, pH 7.0, 25 °C) [3] [min^−1] | kcat/Km: activity as substrate of TrxR (ecTrxR-catalysed reduction of Trx by NADPH, DTNB-coupled, 0.04 μM TrxR, 0.1-300 μM Trx, pH 7.0, 25 °C) [3] [M^−1 s^−1] | Substance | pKa (Cys32) |
| --- | --- | --- | --- | --- | --- | --- |
|  |  |  |  |  | Thioredoxin 1 (ecTrx) (Escherichia coli) | 7.1 |
| 0.0645 | 369000 | 1.65 | 25.8 | 718000 | Last γ-Proteobacteria Common Ancestor thioredoxin (enzyme) |  |
| 0.104 | 436000 | 2.93 | 36.9 | 7.6e+06 | Last Common Ancestor of the Cyanobacterial, Deinococcus, and Thermus group thioredoxin (enzyme) |  |
| 0.0532 | 518000 | 1.54 | 9.13 | 118000 | Last Archaeal Common Ancestor thioredoxin (enzyme) |  |
| 0.0781 | 498000 | 2.69 | 11.7 | 117000 | Last Bacterial Common Ancestor thioredoxin (enzyme) |  |
| 0.0512 | 1.01e+06 | 2.89 | 66.9 | 8.81e+06 | Escherichia coli thioredoxin (from UniProt P0AA25 2-109) (enzyme) |  |
| 0.0452 | 716000 | 1.75 | 14.6 | 130000 | Archaeal–Eukaryotic Common Ancestor thioredoxin (enzyme) |  |
| 0.0738 | 40700 | 3.51 | 0.29 |  | Last Eukaryotic Common Ancestor thioredoxin (enzyme) |  |
| 0.0224 | 45000 | 3.47 |  |  | Last Animalia and Fungi Common Ancestor thioredoxin (enzyme) |  |
